According to IntAct's records for PubMed 15143060:

B1: ADP-ribosylation factor-binding protein GGA1 (Homo sapiens), Q9UJY5 (parent)
chain: MEPAMEPETLEARINRATNPLNKELDWASINGFCEQLNEDFEGPPLATRLLAHKIQSPQEWEAIQALTVLETCMKSCGKRFHDEVGKFRFLNELIKVVSPKYLGSRTSEKVKNKILELLYSWTVGLPEEVKIAEAYQMLKKQGIVKSDPKLPDDTTFPLPPPRPKNVIFEDEEKSKMLARLLKSSHPEDLRAANKLIKEMVQEDQKRMEKISKRVNAIEEVNNNVKLLTEMVMSHSQGGAAAGSSEDLMKELYQRCERMRPTLFRLASDTEDNDEALAEILQANDNLTQVINLYKQLVRGEEVNGDATAGSIPGSTSALLDLSGLDLPPAGTTYPAMPTRPGEQASPEQPSASVSLLDDELMSLGLSDPTPPSGPSLDGTGWNSFQSSDATEPPAPALAQAPSMESRPPAQTSLPASSGLDDLDLLGKTLLQQSLPPESQQVRWEKQQPTPRLTLRDLQNKSSSCSSPSSSATSLLHTVSPEPPRPPQQPVPTELSLASITVPLESIKPSNILPVTVYDQHGFRILFHFARDPLPGRSDVLVVVVSMLSTAPQPIRNIVFQSAVPKVMKVKLQPPSGTELPAFNPIVHPSAITQVLLLANPQKEKVRLRYKLTFTMGDQTYNEMGDVDQFPPPETWGSL

Variants of: B1
Settings: with arf1_human ARF1, P84077
Chain of arf1_human ARF1, P84077 (P84077 whole entry): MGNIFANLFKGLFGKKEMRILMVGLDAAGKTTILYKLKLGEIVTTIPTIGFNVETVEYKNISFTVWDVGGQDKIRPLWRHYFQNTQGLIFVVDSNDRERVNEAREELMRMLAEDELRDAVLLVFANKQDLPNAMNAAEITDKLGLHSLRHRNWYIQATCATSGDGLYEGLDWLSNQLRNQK

Variant	effect of a mutation on the interaction
L182A;N194A;I197A	decreasing interaction
